The assay concerns the target neutral avidin (UniProt P02701). The assay is described as follows: dynamic light scattering; each protein alone peaks near 10 nm.

Among the data in patent publication US20220259268A1 are particle size values, retold here.

Chain of neutral avidin (P02701 25-152): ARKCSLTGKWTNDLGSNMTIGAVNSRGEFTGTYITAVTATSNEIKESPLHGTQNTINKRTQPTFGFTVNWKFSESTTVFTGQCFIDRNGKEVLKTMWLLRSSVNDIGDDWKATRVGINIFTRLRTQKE

With “Nhead recombinant protein (AtaA59-325-GCN4pII-His)”, the particle size at the peak of the mixture (DLS) is over 1000 nm.
